Reference: paper PMC3412936
Values belong to the substance of their own block, whether it stands above or below them.

Key:
Test in all cases: ITC
[1] = target: WW1 domain (residues 16-50) of human WWOX (human) (UniProt Q9NZC7)
[2] = target: engineered WW1-WW2rw tandem domains of WWOX (human) (UniProt Q9NZC7)
[3] = target: WW2_Y85W mutant of the WW2 domain of WWOX (human) (UniProt Q9NZC7)
[4] = target: WW1_R25E mutant of the WW1 domain of WWOX (human) (UniProt Q9NZC7)
[5] = target: WW2_E66R mutant of the WW2 domain of WWOX (human) (UniProt Q9NZC7)
WW2_E66R mutant of the WW2 domain of WWOX (human), sequence (Q9NZC7 57-91 E66R): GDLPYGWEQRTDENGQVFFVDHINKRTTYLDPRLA

[6] = target: WW1_W44Y mutant of the WW1 domain of WWOX (human) (UniProt Q9NZC7)
WW1_W44Y mutant of the WW1 domain of WWOX (human), sequence (Q9NZC7 16-50 W44Y): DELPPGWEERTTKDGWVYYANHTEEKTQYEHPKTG

[7] = target: WW2 domain (residues 57-91) of human WWOX (human) (UniProt Q9NZC7)
WW2 domain (residues 57-91) of human WWOX (human), sequence (Q9NZC7 57-91): as the sequence (Q9NZC7 57-91 E66R) above, with R10E counted along it

[8] = target: WW1_R25A mutant of the WW1 domain of WWOX (human) (UniProt Q9NZC7)
WW1_R25A mutant of the WW1 domain of WWOX (human), sequence (Q9NZC7 16-50 R25A): as the sequence (Q9NZC7 16-50 W44Y) above, with R10A, Y29W counted along it

[9] = target: engineered WW2_RW domain of WWOX (E66R/Y85W double-mutant of WW2 domain) (human) (UniProt Q9NZC7)
engineered WW2_RW domain of WWOX (E66R/Y85W double-mutant of WW2 domain) (human), sequence (Q9NZC7 57-91 E66R/Y85W): as the sequence (Q9NZC7 57-91 E66R) above, with Y29W counted along it

[10] = target: WW1-WW2 tandem domains (residues 16-91) of human WWOX (human) (UniProt Q9NZC7)
WW1-WW2 tandem domains (residues 16-91) of human WWOX (human), sequence (Q9NZC7 16-91): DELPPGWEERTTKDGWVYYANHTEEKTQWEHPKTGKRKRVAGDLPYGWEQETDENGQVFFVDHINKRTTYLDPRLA

WW1 domain (residues 16-50) of human WWOX (human), sequence (Q9NZC7 16-50): as the sequence (Q9NZC7 16-50 W44Y) above, with Y29W counted along it
engineered WW1-WW2rw tandem domains of WWOX (human), sequence (Q9NZC7 16-91 E66R/Y85W): as the sequence (Q9NZC7 16-91) above, with E51R, Y70W counted along it
WW1_R25E mutant of the WW1 domain of WWOX (human), sequence (Q9NZC7 16-50 R25E): as the sequence (Q9NZC7 16-50 W44Y) above, with R10E, Y29W counted along it
WW2_Y85W mutant of the WW2 domain of WWOX (human), sequence (Q9NZC7 57-91 Y85W): as the sequence (Q9NZC7 57-91 E66R) above, with R10E, Y29W counted along it

Substance: PY3_P-2A alanine mutant of the WBP2_PY3 peptide
Kd [1]: 250 µM
dH [1]: -75.3 kJ/mol

Substance: PY3_Y+4A alanine mutant of the WBP2_PY3 peptide
Kd [1]: 229 µM
dH [1]: -34.9 kJ/mol

Substance: WBP2_PY3 peptide (12-mer spanning the PY3 PPXY motif of human WBP2)
Kd [2]: 59 µM
dH [2]: -33.6 kJ/mol
Kd [3]: > 1000 µM
Kd [4]: > 1000 µM
Kd [5]: > 1000 µM
Kd [6]: > 1000 µM
Kd [7]: > 1000 µM
Kd [8]: > 1000 µM
Kd [1]: 122 µM
dH [1]: -52.8 kJ/mol
Kd [9]: 91 µM
dH [9]: -21.8 kJ/mol
Kd [10]: 49 µM
dH [10]: -35.4 kJ/mol
stoichiometry N [10]: 1.05

Further substances by falling Kd [1], results first:

Kd [1]: 554 µM
dH [1]: -20.7 kJ/mol
Substance: PY3_Y+3A alanine mutant of the WBP2_PY3 peptide

Kd [1]: 149 µM
dH [1]: -52 kJ/mol
Substance: PY3_Q-3A alanine mutant of the WBP2_PY3 peptide
